This note sets out measurements from PMC11271386 (Analytical and Bioanalytical Chemistry, 2024).

For one test, the target named is T1, ^FlagDNAJB8^H31Q (human, UniProt Q8NHS0 1-232, H31Q).
T1 construct: DNAJB8, human Class B Hsp40, with the J-domain mutation H31Q; source: HEK293T, transfected (calcium phosphate), in lysate
T1 sequence (looked up): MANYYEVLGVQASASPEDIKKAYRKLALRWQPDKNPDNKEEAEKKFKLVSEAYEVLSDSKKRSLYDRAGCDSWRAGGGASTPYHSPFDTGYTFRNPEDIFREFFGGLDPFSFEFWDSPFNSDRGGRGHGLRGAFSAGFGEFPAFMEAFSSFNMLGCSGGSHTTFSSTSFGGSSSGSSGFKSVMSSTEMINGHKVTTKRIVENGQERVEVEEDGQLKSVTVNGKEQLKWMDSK
The test can be described thus: affinity purification with mass spectrometry; TMT-AP-MS comparing four conditions: ^FlagDNAJB8 WT vs. H31Q, with or without 1 mM DSP crosslinking of the cells before lysis; RIPA lysis and washes, M2 anti-Flag beads; crosslinks reversed with TCEP; three biological replicates. To be noted: partners not purified.

The target in the next test is T2, ^FlagDNAJB8^WT (human, UniProt Q8NHS0 1-232).
T2 construct: DNAJB8, human Class B Hsp40 (J-domain protein); also called Hsp40 DNAJB8; source: HEK293T, transfected (calcium phosphate), in lysate
T2 sequence (looked up): T1 sequence (looked up) with Q31H
The description is as above. Particulars: partners not purified.

Substitutions are numbered along the chain they refer to.

B1: 14–3-3θ/YWHAQ (natural protein, human (endogenous in HEK293T), UniProt P27348 1-245, looked up)
chain: MEKTELIQKAKLAEQAERYDDMATCMKAVTEQGAELSNEERNLLSVAYKNVVGGRRSAWRVISSIEQKTDTSDKKLQLIKDYREKVESELRSICTTVLELLDKYLIANATNPESKVFYLKMKGDYFRYLAEVACGDDRKQTIDNSQGAYQEAFDISKKEMQPTHPIRLGLALNFSVFYYEILNNPELACTLAKTAFDEAIAELDTLNEDSYKDSTLIMQLLRDNLTLWTSDSAGEECDAAEGAEN
notes: 14-3-3 theta (YWHAQ), human; source: endogenous, HEK293T lysate
For the molecule B1, the “fold change recovery with DSP crosslinking against without” value in the test with ^FlagDNAJB8^H31Q came out at 3.2 ± 0.8%; with ^FlagDNAJB8^WT, 4.8 ± 0.7%.

B2: PFDN1 (natural protein, human (endogenous in HEK293T), UniProt O60925 1-122, looked up)
chain: MAAPVDLELKKAFTELQAKVIDTQQKVKLADIQIEQLNRTKKHAHLTDTEIMTLVDETNMYEGVGRMFILQSKEAIHSQLLEKQKIAEEKIKELEQKKSYLERSVKEAEDNIREMLMARRAQ
notes: PFDN1, prefoldin β subunit, human; also called prefoldin β subunit; source: endogenous, HEK293T lysate
For B2, in the test with ^FlagDNAJB8^H31Q, the “fold change of recovery with DNAJB8^H31Q compared to DNAJB8^WT, −DSP” value was 3.4 ± 0.9 fold.
